These results are taken from PMC5346689.

Holding throughout (test): SEC; HiLoad 26/60 Superdex 75 prep grade column; buffer B (20 mM MES, 50 mM NaCl, 10 mM CaCl2, pH 7.0); oligomeric state of each purified S100A4 protein in solution
For orientation: In gel filtration, larger molecules generally elute earlier.

In assay [1] the target is S100A4 C-terminal Ca2+ binding site mutant N65I/D67A (UniProt P26447).
The target in assay [2] is S100A4 N-terminal Ca2+-binding site mutant E23A/D25A (UniProt P26447).
Assay [3] deals with recombinant wild-type S100A4 (UniProt P26447).

The term stoichiometry N denotes the number of molecules, sites or subunits per partner or assembly. With “S100A4 C-terminal Ca2+ binding site mutant N65I/D67A (from UniProt P26447 1-101) (natural protein)”, the stoichiometry N in assay [1] amounted to 2.
Turning to “S100A4 N-terminal Ca2+-binding site mutant E23A/D25A (from UniProt P26447 1-101) (natural protein)”, in assay [2], the stoichiometry N came to 2.
Turning to “recombinant wild-type S100A4 (from UniProt P26447 1-101) (natural protein)”, in assay [3], the stoichiometry N was found to be 2.
